Measurements reported in US20250197451A1 (CAPITAL MEDICAL UNIVERSITY SCHOOL OF STOMATOLOGY, published 2025).

B1: peptide 264 (peptide)
peptide: AEMSVSVQFGQVEEK
B2: peptide 56 (peptide)
peptide: EWVLSGKQSDIFLGD
B3: peptide 46 (peptide)
peptide: VKKYCLMSVKGCFTD
B4: peptide 86 (peptide)
peptide: DEEGEGRDRAPKPPT
B5: peptide 39 (peptide)
peptide: TVVDLVDWVDNMWPQ
B6: peptide 7 (peptide)
peptide: YTKCFEFESATQRPI
B7: peptide 82 (peptide)
peptide: SWLEMEEEACDQQPQ
B8: peptide 60 (peptide)
peptide: QRIELKQGYTFFIPS
B9: peptide 252 (peptide)
peptide: INLLTAVGTTTRDSL
B10: peptide 249 (peptide)
peptide: SKLHLSYCNHVTDQS
B11: peptide 93 (peptide)
peptide: PKAPALRFLKRTLSN
B12: peptide 59 (peptide)
peptide: RVERCQRIELKQGYT
B13: peptide 256 (peptide)
peptide: SDCNKVTDQCLSFFK
B14: peptide 42 (peptide)
peptide: HLKEKQTEATNAIAE
B15: peptide 80 (peptide)
peptide: KPSIDGFSSDSWLEM
B16: peptide 61 (peptide)
peptide: KQGYTFFIPSGWIHA
B17: peptide 265 (peptide)
peptide: SVQFGQVEEKLLQKL
B18: peptide 6 (peptide)
peptide: KKTVIYTKCFEFESA
B19: peptide 40 (peptide)
peptide: VDWVDNMWPQHLKEK
B20: peptide 30 (peptide)
peptide: QKGTEMSMSQFVRYY
B21: peptide 62 (peptide)
peptide: FFIPSGWIHAVYTPV
B22: peptide 250 (peptide)
peptide: SYCNHVTDQSINLLT
B23: peptide 261 (peptide)
peptide: RYCKQVTKEGCEQFI
B24: peptide 47 (peptide)
peptide: LMSVKGCFTDFHIDF
B25: peptide 49 (peptide)
peptide: FHIDFGGTSVWYHVF
B26: peptide 37 (peptide)
peptide: TKLEHLVKRPTVVDL
B27: peptide 45 (peptide)
peptide: MKYPKVKKYCLMSVK
B28: peptide 52 (peptide)
peptide: RGGKIFWLIPPTLHN
B29: peptide 58 (peptide)
peptide: IFLGDRVERCQRIEL
B30: peptide 35 (peptide)
peptide: YNVISLEFSHTKLEH
B31: peptide 67 (peptide)
peptide: HSFNVPMQLRIYEIE
B32: peptide 29 (peptide)
peptide: MDVNTQKGTEMSMSQ
B33: peptide 53 (peptide)
peptide: FWLIPPTLHNLALYE
B34: peptide 81 (peptide)
peptide: GFSSDSWLEMEEEAC
B35: peptide 72 (peptide)
peptide: YPFYYEMCWYVLERY
B36: peptide 75 (peptide)
peptide: VYCVTQRSHLTQEYQ
B37: peptide 51 (peptide)
peptide: WYHVFRGGKIFWLIP
B38: peptide 25 (peptide)
peptide: PDFTVRDVKLLVGSR
B39: peptide 9 (peptide)
peptide: TQRPIDRQRYDENED
B40: peptide 66 (peptide)
peptide: GGNILHSFNVPMQLR
B41: peptide 26 (peptide)
peptide: RDVKLLVGSRRLVDV
B42: peptide 38 (peptide)
peptide: LVKRPTVVDLVDWVD
B43: peptide 85 (peptide)
peptide: EEEEKDEEGEGRDRA
B44: peptide 55 (peptide)
peptide: LALYEEWVLSGKQSD
B45: peptide 76 (peptide)
peptide: QRSHLTQEYQRESML
B46: peptide 3 (peptide)
peptide: EDHPPRKRHAAEKQK
B47: peptide 79 (peptide)
peptide: IDAPRKPSIDGFSSD
B48: peptide 36 (peptide)
peptide: LEFSHTKLEHLVKRP
B49: peptide 4 (peptide)
peptide: RKRHAAEKQKKKTVI
B50: peptide 27 (peptide)
peptide: LVGSRRLVDVMDVNT
B51: peptide 63 (peptide)
peptide: GWIHAVYTPVDSLVF
B52: peptide 41 (peptide)
peptide: NMWPQHLKEKQTEAT
B53: peptide 68 (peptide)
peptide: PMQLRIYEIEDRTRV
B54: peptide 48 (peptide)
peptide: GCFTDFHIDFGGTSV
B55: peptide 88 (peptide)
peptide: PKPPTDGSTSPTSTP
B56: peptide 5 (peptide)
peptide: AEKQKKKTVIYTKCF
B57: peptide 28 (peptide)
peptide: RLVDVMDVNTQKGTE
B58: peptide 260 (peptide)
peptide: CHIDLRYCKQVTKEG
B59: peptide 43 (peptide)
peptide: QTEATNAIAEMKYPK
B60: peptide 87 (peptide)
peptide: GRDRAPKPPTDGSTS
B61: peptide 34 (peptide)
peptide: QRDKLYNVISLEFSH
B62: peptide 31 (peptide)
peptide: MSMSQFVRYYETPEA
B63: peptide 259 (peptide)
peptide: RCGNICHIDLRYCKQ
B64: peptide 78 (peptide)
peptide: RESMLIDAPRKPSID
B65: peptide 251 (peptide)
peptide: VTDQSINLLTAVGTT

What follows are binders tested against T1, biotin-labelled EZH2 protein (UniProt Q15910 1-746, limits assumed, biotin label (EZ-link NHS-PEO4-Biotinylation kit)) (assay: KDM2B peptide array probed with biotin-EZH2 1 ug/ml, SA-HRP/ECL;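 note: Background-corrected optical density of each spot on the membrane, given as percent of the brightest spot (100%), color developed for 5 minutes; 100% is the highest background-corrected spot optical density on the membrane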).
T1 construct: Probe in solution (1 ug/ml) on the KDM2B peptide microarray; also called NHS-PEO4-Biotinylation-labelled EZH2 protein; recombinant protein
T1 sequence (Q15910 whole entry): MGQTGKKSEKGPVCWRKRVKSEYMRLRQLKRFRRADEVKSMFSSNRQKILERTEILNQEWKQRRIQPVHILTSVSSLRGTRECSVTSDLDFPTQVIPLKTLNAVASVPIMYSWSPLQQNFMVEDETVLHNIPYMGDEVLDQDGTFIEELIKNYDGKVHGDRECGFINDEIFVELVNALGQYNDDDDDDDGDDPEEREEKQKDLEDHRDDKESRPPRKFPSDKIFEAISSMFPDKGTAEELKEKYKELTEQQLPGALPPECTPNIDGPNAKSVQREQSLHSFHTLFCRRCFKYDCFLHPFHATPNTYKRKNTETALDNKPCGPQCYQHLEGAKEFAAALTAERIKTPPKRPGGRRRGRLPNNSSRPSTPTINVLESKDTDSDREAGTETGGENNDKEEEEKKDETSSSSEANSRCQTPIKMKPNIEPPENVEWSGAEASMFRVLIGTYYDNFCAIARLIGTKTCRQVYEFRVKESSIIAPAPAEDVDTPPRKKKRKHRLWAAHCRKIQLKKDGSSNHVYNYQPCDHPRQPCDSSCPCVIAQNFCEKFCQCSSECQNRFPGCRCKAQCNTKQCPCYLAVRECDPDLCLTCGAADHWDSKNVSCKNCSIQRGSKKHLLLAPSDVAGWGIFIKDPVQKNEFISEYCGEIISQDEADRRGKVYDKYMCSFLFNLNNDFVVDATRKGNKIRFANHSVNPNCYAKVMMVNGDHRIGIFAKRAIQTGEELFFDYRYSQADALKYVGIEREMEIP
Description: After blocking, the polypeptide microarray was incubated with biotin-labeled target protein for hybridization, visualized with the chemical chromogenic substrate and imaged using a Chempchemi digital imager. The image of colored polypeptide microarray was analyzed for the optical density of the colored points. Particularly, the optical density of each colored point was calculated using the optical density of the respective surrounding background as a reference for background correction. The highest optical density value of the colored point on membrane was set to 100%, and the optical density value of the remaining colored points was converted into percentages relative to the highest value. The points with an optical density percentage of more than 30% on the polypeptide membrane and also with an optical density percentage of less than 30% on the negative membrane were defined as positive colored points.
For the hybridization experiment, a solution of NHS-PEO4-Biotinylation-labelled EZH2 protein (1 μg/ml) was used for the hybridization of the polypeptide microarray. Streptavidin-HRP was used to amplify the reaction signal according to the experimental procedure and conditions described above, and the time of color development was 5 minutes.

Binder | Intensity (%)
B1 | 2.91
B2 | 24.6
B3 | 100
B4 | 0.03
B5 | 0.27
B6 | 0
B7 | 0
B8 | 0.3
B9 | 0.22
B10 | 0
B11 | 0
B12 | 11.4
B13 | 5.43
B14 | 2.03
B15 | 6.61
B16 | 0.85
B17 | 2.09
B18 | 27.5
B19 | 0
B20 | 1.2
B21 | 2.54
B22 | 0

Binder | Intensity (%)
B23 | 5.21
B24 | 100
B25 | 0
B26 | 0.73
B27 | 7.77
B28 | 0.55
B29 | 15.6
B30 | 5.95
B31 | 0
B32 | 5.32
B33 | 0.7
B34 | 7.19
B35 | 0.04
B36 | 0
B37 | 0
B38 | 0.02
B39 | 0
B40 | 0.54
B41 | 0.36
B42 | 0
B43 | 0
B44 | 0

Binder | Intensity (%)
B45 | 0
B46 | 0
B47 | 1.13
B48 | 0.89
B49 | 0
B50 | 0
B51 | 1.74
B52 | 0
B53 | 6.33
B54 | 0
B55 | 0
B56 | 97
B57 | 0
B58 | 22.3
B59 | 0
B60 | 0
B61 | 0
B62 | 19.2
B63 | 1.36
B64 | 1.74
B65 | 0
